According to publication doi:10.1101/2021.05.25.445681 (bioRxiv, 2021):

Biological target: the molecule itself
Assay: cryo-EM structure

B1: E. coli MsbA (natural protein)
chain: MHNDKDLSTWQTFRRLWPTIAPFKAGLIVAGVALILNAASDTFMLSLLKPLLDDGFGKTDRSVLVWMPLVVIGLMILRGITSYVSSYCISWVSGKVVMTMRRRLFGHMMGMPVSFFDKQSTGTLLSRITYDSEQVASSSSGALITVVREGASIIGLFIMMFYYSWQLSIILIVLAPIVSIAIRVVSKRFRNISKNMQNTMGQVTTSAEQMLKGHKEVLIFGGQEVETKRFDKVSNRMRLQGMKMVSASSISDPIIQLIASLALAFVLYAASFPSVMDSLTAGTITVVFSSMIALMRPLKSLTNVNAQFQRGMAACQTLFTILDSEQEKDEGKRVIERATGDVEFRNVTFTYPGRDVPALRNINLKIPAGKTVALVGRSGSGKSTIASLITRFYDIDEGEILMDGHDLREYTLASLRNQVALVSQNVHLFNDTVANNIAYARTEQYSREQIEEAARMAYAMDFINKMDNGLDTVIGENGVLLSGGQRQRIAIARALLRDSPILILDEATSALDTESERAIQAALDELQKNRTSLVIAHRLSTIEKADEIVVVEDGVIVERGTHNDLLEHRGVYAQLHKMQFGQ
binding result: binds
